From publication PMC4251045

Legend:
[1] = target: Rim1-C-terminal 6xHis (yeast); assay: cross-linking; DSS 2.5 mM, 3 uM Rim1 tetramer, 25 mM HEPES, 100 mM NaCl, 10% glycerol, pH 7.5, room temperature 40 min; products resolved on 5-15% SDS-PAGE; bands digested and analysed by nanoLC-LTQ-Orbitrap MS (XLPM, StavroX)
[2] = target: Rim1-C-terminal 6xHis (yeast); assay: cross-linking; SDA (NHS-diazirine) 50 uM, 3 uM Rim1 tetramer, 25 mM HEPES, 100 mM NaCl, 10% glycerol, pH 7.5, NHS step 25 °C 30 min, then UV 365 nm; SDS-PAGE; bands analysed by nanoLC-LTQ-Orbitrap MS (XLPM)

stoichiometry N [1]: 4
stoichiometry N [2]: 4
Substance: Rim1-C-terminal 6xHis (natural protein)
